The supplement of paper PMC10567573

B1: CDC14A (parent)
chain: GPHPKSKIENGYPLHAPEAYFPYF

Variants of: B1
Assay: protein stability index of a GFP-peptide fusion (GPS, HEK-293T) (PSI 1-6); higher = more stable
Details: c terminus: a fixed tail appended
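Also: lentivirally expressed fusions sorted by FACS into six bins by GFP to DsRed ratio, PSI derived from sequencing read proportions per bin multiplied by bin number.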

Row | Variant | protein stability index
1 | GLHPKSKIENGYPLHAPEAYFPYF [P2L] | 2.29
2 | GMHPKSKIENGYPLHAPEAYFPYF [P2M] | 2.13
3 | GNHPKSKIENGYPLHAPEAYFPYF [P2N] | 2.1
4 | GQHPKSKIENGYPLHAPEAYFPYF [P2Q] | 2.14
5 | GRHPKSKIENGYPLHAPEAYFPYF [P2R] | 2.34
6 | GSHPKSKIENGYPLHAPEAYFPYF [P2S] | 2.33
7 | GTHPKSKIENGYPLHAPEAYFPYF [P2T] | 2.17
8 | GVHPKSKIENGYPLHAPEAYFPYF [P2V] | 2.41
9 | GWHPKSKIENGYPLHAPEAYFPYF [P2W] | 2.45
10 | GYHPKSKIENGYPLHAPEAYFPYF [P2Y] | 1.85
11 | GPAPKSKIENGYPLHAPEAYFPYF [H3A] | 2.4
12 | GPCPKSKIENGYPLHAPEAYFPYF [H3C] | 2.01
13 | GPDPKSKIENGYPLHAPEAYFPYF [H3D] | 2.01
14 | GPEPKSKIENGYPLHAPEAYFPYF [H3E] | 2.46
15 | GPFPKSKIENGYPLHAPEAYFPYF [H3F] | 2.02
16 | GPGPKSKIENGYPLHAPEAYFPYF [H3G] | 2.54
17 | GPIPKSKIENGYPLHAPEAYFPYF [H3I] | 2.48
18 | GPKPKSKIENGYPLHAPEAYFPYF [H3K] | 2.46
19 | GPLPKSKIENGYPLHAPEAYFPYF [H3L] | 2.19
20 | GPMPKSKIENGYPLHAPEAYFPYF [H3M] | 2.19
21 | GPNPKSKIENGYPLHAPEAYFPYF [H3N] | 2.54
22 | GPQPKSKIENGYPLHAPEAYFPYF [H3Q] | 2.7
23 | GPRPKSKIENGYPLHAPEAYFPYF [H3R] | 2.19
24 | GPSPKSKIENGYPLHAPEAYFPYF [H3S] | 2.55

Row | Variant | protein stability index
25 | GPTPKSKIENGYPLHAPEAYFPYF [H3T] | 1.91
26 | GPVPKSKIENGYPLHAPEAYFPYF [H3V] | 2.41
27 | GPWPKSKIENGYPLHAPEAYFPYF [H3W] | 1.66
28 | GPYPKSKIENGYPLHAPEAYFPYF [H3Y] | 1.9
29 | GPHAKSKIENGYPLHAPEAYFPYF [P4A] | 2.52
30 | GPHCKSKIENGYPLHAPEAYFPYF [P4C] | 2.27
31 | GPHDKSKIENGYPLHAPEAYFPYF [P4D] | 2.12
32 | GPHEKSKIENGYPLHAPEAYFPYF [P4E] | 2.11
33 | GPHFKSKIENGYPLHAPEAYFPYF [P4F] | 2.24
34 | GPHGKSKIENGYPLHAPEAYFPYF [P4G] | 2.22
35 | GPHHKSKIENGYPLHAPEAYFPYF [P4H] | 2.24
36 | GPHIKSKIENGYPLHAPEAYFPYF [P4I] | 1.91
37 | GPHKKSKIENGYPLHAPEAYFPYF [P4K] | 2.29
38 | GPHLKSKIENGYPLHAPEAYFPYF [P4L] | 1.51
39 | GPHMKSKIENGYPLHAPEAYFPYF [P4M] | 2.33
40 | GPHNKSKIENGYPLHAPEAYFPYF [P4N] | 2.48
41 | GPHQKSKIENGYPLHAPEAYFPYF [P4Q] | 2.23
42 | GPHRKSKIENGYPLHAPEAYFPYF [P4R] | 2.8
43 | GPHSKSKIENGYPLHAPEAYFPYF [P4S] | 1.86
44 | GPHTKSKIENGYPLHAPEAYFPYF [P4T] | 2
45 | GPHVKSKIENGYPLHAPEAYFPYF [P4V] | 2.84
46 | GPHWKSKIENGYPLHAPEAYFPYF [P4W] | 2.08
47 | GPHYKSKIENGYPLHAPEAYFPYF [P4Y] | 1.89
48 | GPHPASKIENGYPLHAPEAYFPYF [K5A] | 2.26

Row | Variant | protein stability index
49 | GPHPCSKIENGYPLHAPEAYFPYF [K5C] | 2.23
50 | GPHPDSKIENGYPLHAPEAYFPYF [K5D] | 2.08
51 | GPHPESKIENGYPLHAPEAYFPYF [K5E] | 2.5
52 | GPHPFSKIENGYPLHAPEAYFPYF [K5F] | 1.29
53 | GPHPGSKIENGYPLHAPEAYFPYF [K5G] | 1.99
54 | GPHPISKIENGYPLHAPEAYFPYF [K5I] | 2.06
55 | GPHPLSKIENGYPLHAPEAYFPYF [K5L] | 2.37
56 | GPHPMSKIENGYPLHAPEAYFPYF [K5M] | 1.87
57 | GPHPNSKIENGYPLHAPEAYFPYF [K5N] | 2.07
58 | GPHPQSKIENGYPLHAPEAYFPYF [K5Q] | 2.77
59 | GPHPRSKIENGYPLHAPEAYFPYF [K5R] | 2.38
60 | GPHPSSKIENGYPLHAPEAYFPYF [K5S] | 2.56
61 | GPHPTSKIENGYPLHAPEAYFPYF [K5T] | 2.13
62 | GPHPVSKIENGYPLHAPEAYFPYF [K5V] | 1.92
63 | GPHPWSKIENGYPLHAPEAYFPYF [K5W] | 1.92
64 | GPHPYSKIENGYPLHAPEAYFPYF [K5Y] | 1.66
65 | GPHPKAKIENGYPLHAPEAYFPYF [S6A] | 2.36
66 | GPHPKCKIENGYPLHAPEAYFPYF [S6C] | 1.87
67 | GPHPKDKIENGYPLHAPEAYFPYF [S6D] | 2.59
68 | GPHPKEKIENGYPLHAPEAYFPYF [S6E] | 2.3
69 | GPHPKFKIENGYPLHAPEAYFPYF [S6F] | 2.11
70 | GPHPKGKIENGYPLHAPEAYFPYF [S6G] | 2.14
71 | GPHPKHKIENGYPLHAPEAYFPYF [S6H] | 2.63
72 | GPHPKIKIENGYPLHAPEAYFPYF [S6I] | 2.01

Row | Variant | protein stability index
73 | GPHPKKKIENGYPLHAPEAYFPYF [S6K] | 2.58
74 | GPHPKLKIENGYPLHAPEAYFPYF [S6L] | 2.22
75 | GPHPKMKIENGYPLHAPEAYFPYF [S6M] | 1.6
76 | GPHPKNKIENGYPLHAPEAYFPYF [S6N] | 2.21
77 | GPHPKPKIENGYPLHAPEAYFPYF [S6P] | 2
78 | GPHPKQKIENGYPLHAPEAYFPYF [S6Q] | 2.22
79 | GPHPKRKIENGYPLHAPEAYFPYF [S6R] | 2.2
80 | GPHPKTKIENGYPLHAPEAYFPYF [S6T] | 2.15
81 | GPHPKVKIENGYPLHAPEAYFPYF [S6V] | 2.16
82 | GPHPKWKIENGYPLHAPEAYFPYF [S6W] | 1.88
83 | GPHPKYKIENGYPLHAPEAYFPYF [S6Y] | 1.82
84 | GPHPKSAIENGYPLHAPEAYFPYF [K7A] | 2.33
85 | GPHPKSCIENGYPLHAPEAYFPYF [K7C] | 2.23
86 | GPHPKSDIENGYPLHAPEAYFPYF [K7D] | 2.13
87 | GPHPKSEIENGYPLHAPEAYFPYF [K7E] | 2.27
88 | GPHPKSFIENGYPLHAPEAYFPYF [K7F] | 1.99
89 | GPHPKSGIENGYPLHAPEAYFPYF [K7G] | 2.84
90 | GPHPKSHIENGYPLHAPEAYFPYF [K7H] | 2.22
91 | GPHPKSIIENGYPLHAPEAYFPYF [K7I] | 1.98
92 | GPHPKSLIENGYPLHAPEAYFPYF [K7L] | 2.06
93 | GPHPKSMIENGYPLHAPEAYFPYF [K7M] | 1.91
94 | GPHPKSNIENGYPLHAPEAYFPYF [K7N] | 2.57
